According to PMC7920261 (Science (New York, N.y.), 2020):

Assays:
[1] = biological target: T1, SARS-CoV-2 spike receptor-binding domain (RBD) (SARS-CoV-2, UniProt P0DTC2); experiment: BLI; conditions: both partners purified
[2] = biological target: T1, SARS-CoV-2 spike receptor-binding …; experiment: ELISA; conditions: both partners purified

B1: CTC-445.2t (designed binder)
chain: SAEIDLGKGDFREIRASEDAREAAEALAEAARAMKEALEIIREIAEKLRDSSRASEAAKRIAKAIRKAADAIAEAAKIAARAAKDGDAARNAENAARKAKEFAEEQAKLADMYAELAKNGDKSSVLEQLKTFADKAFHEMEDRFYQAALAVFEAAEAAAGGGGSGGSGSGGSGGGSSAEIDLGKGDFREIRASEDAREAAEALAEAARAMKEALEIIREIAEKLRDSSRASEAAKRIAKAIRKAADAIAEAAKIAARAAKDGDAARNAENAARKAKEFAEEQAKLADMYAELAKNGDKSSVLEQLKTFADKAFHEMEDRFYQAALAVFEAAEAAAGGGGSGGSGSGGSGGGSSAEIDLGKGDFREIRASEDAREAAEALAEAARAMKEALEIIREIAEKLRDSSRASEAAKRIAKAIRKAADAIAEAAKIAARAAKDGDAARNAENAARKAKEFAEEQAKLADMYAELAKNGDKSSVLEQLKTFADKAFHEMEDRFYQAALAVFEAAEAAAG
- Kd [1]: ~0.27 nM
- IC50 [2]: ~0.01 nM
